Patent publication US20100004325

T1: F-N803 peptide (FITC-labeled HIF-1α 788-822 peptide)
T1 chain: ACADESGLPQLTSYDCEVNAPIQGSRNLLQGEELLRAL

T2: B-P564 peptide (biotin-labeled HIF-1α 556-575 peptide)
T2 chain: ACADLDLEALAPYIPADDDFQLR

B1: His-FIH1 (human factor inhibiting HIF1, amino acids 1-349) (protein)
chain: MAATAAEAVASGSGEPREEAGALGPAWDESQLRSYSFPTRPIPRLSQSDPRAEELIENEEPVVLTDTNLVYPALKWDLEYLQENIGNGDFSVYSASTHKFLYYDEKKMANFQNFKPRSNREEMKFHEFVEKLQDIQQRGGEERLYLQQTLNDTVGRKIVMDFLGFNWNWINKQQGKRGWGQLTSNLLLIGMEGNVTPAHYDEQQNFFAQIKGYKRCILFPPDQFECLYPYPVHHPCDRQSQVDFDNPDYERFPNFQNVVGYETVVGPGDVLYIPMYWWHHIESLLNGGITITVNFWYKGAPTPKRIEYPLKAHQKVAIMRNIEKMLGEALGNPQEVGPLLNTMIKGRYN
B2: GST-PHD2 (human prolyl hydroxylase 2, amino acids 184-426) (protein)
chain: QTKPLPALKLALEYIVPCMNKHGICVVDDFLGKETGQQIGDEVRALHDTGKFTDGQLVSQKSDSSKDIRGDKITWIEGKEPGCETIGLLMSSMDDLIRHCNGKLGSYKINGRTKAMVACYPGNGTGYVRHVDNPNGDGRCVTCIYYLNKDWDAKVSGGILRIFPEGKAQFADIEPKFDRLLFFWSDRRNPHEVQPAYATRYAITVWYFDADERARAKVKYLTGEKGVRVELNKPSDSVGKDVF

Experiments:
[1] = target: T1, F-N803 peptide (FITC-labeled HIF-1α …)
[2] = target: T2, B-P564 peptide (biotin-labeled HIF-1α …)

Protein	asparagine hydroxylation of the peptide, MALDI mass spectrometry [1]	proline hydroxylation of the peptide, MALDI mass spectrometry [2]
B1	The asparagine residue was hydroxylated in the baicalein-free reactant	–
B2	–	The proline residue was hydroxylated in the baicalein-free reactant
